Source: patent publication EP1739090A2 (Biogen Idec MA Inc., dated 2007)
Where a chain is given by its changes, count along the chain named. One block for each binder: values may come before it.

Key:
[1] = target: T1, IFNAR2/Fc fusion protein (extracellular domain of the human IFNAR2 receptor chain fused to the hinge, CH2 and … (human, UniProt P48551 27-243)); test: ELISA on captured IFNAR2/Fc; reference of the assay, EC50 not given
T1 construct: extracellular domain; Expressed in CHO cells, purified on protein A, captured on plates by mouse anti-human IgG1 mAb CDG5-AA9; also called IFNAR2-ectodomain/Fc fusion protein; IFNAR/Fc; not shown: human IgG1 heavy chain constant region: hinge, CH2 and CH3 domains
T1 sequence (looked up): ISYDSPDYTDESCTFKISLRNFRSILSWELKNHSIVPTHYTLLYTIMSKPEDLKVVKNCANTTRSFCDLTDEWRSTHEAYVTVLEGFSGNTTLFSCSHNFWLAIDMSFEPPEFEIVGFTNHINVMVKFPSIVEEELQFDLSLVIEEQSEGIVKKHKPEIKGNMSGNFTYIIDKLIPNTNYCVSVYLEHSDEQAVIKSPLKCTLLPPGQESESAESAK

[2] = target: T2, type I interferon cell surface receptor complex (IFNAR1/2 complex) expressed on Daudi Burkitt's lymphoma cells (human, UniProt P17181 28-557; P48551 27-515); test: FACS on Daudi cells, inhibition of EA12 staining; reference of the assay, value not given
T2 construct: whole, on cells; Endogenous receptor of human Daudi cells; both chains together comprise the receptor for interferon-beta; also called IFNAR1/2 cell surface receptor; cognate receptor on Daudi cells
T2 sequence (looked up) 1: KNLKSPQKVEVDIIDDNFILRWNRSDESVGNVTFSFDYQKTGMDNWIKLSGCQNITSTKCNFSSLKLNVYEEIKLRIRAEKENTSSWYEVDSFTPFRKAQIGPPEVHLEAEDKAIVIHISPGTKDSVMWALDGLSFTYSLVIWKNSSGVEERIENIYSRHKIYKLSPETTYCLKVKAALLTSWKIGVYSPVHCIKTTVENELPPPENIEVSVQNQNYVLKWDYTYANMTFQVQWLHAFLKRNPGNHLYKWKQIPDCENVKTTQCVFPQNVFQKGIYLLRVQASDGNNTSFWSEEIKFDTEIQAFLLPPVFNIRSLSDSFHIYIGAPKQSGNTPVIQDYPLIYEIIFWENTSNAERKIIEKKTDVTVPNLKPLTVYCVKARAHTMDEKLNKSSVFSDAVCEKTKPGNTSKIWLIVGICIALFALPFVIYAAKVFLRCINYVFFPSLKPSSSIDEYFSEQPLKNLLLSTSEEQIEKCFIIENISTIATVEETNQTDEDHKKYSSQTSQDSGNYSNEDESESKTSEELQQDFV
T2 sequence (looked up) 2: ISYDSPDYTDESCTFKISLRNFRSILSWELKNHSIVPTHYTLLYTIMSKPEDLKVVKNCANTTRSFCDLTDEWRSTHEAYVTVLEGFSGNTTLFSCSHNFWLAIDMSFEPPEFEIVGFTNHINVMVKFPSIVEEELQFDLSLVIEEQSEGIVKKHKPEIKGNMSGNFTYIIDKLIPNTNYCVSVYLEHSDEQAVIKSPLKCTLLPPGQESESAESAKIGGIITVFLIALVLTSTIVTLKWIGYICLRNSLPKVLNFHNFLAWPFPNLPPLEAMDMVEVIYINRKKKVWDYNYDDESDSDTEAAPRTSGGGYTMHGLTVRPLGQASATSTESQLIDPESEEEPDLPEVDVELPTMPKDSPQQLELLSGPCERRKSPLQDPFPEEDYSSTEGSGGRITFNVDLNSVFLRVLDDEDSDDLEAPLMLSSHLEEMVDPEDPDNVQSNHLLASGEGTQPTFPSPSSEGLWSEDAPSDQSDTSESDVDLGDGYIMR

[3] = target: T1, IFNAR2/Fc fusion protein (extracellular …); test: ELISA on IFNAR2/Fc captured by anti-human IgG1 mAb
[4] = target: T1, IFNAR2/Fc fusion protein (extracellular …); test: ELISA on captured IFNAR2/Fc

binding result [1]: binds
binding result [2]: binds
B1: histidine tagged wild-type interferon-beta-1a (ligand)
chain: SGGHHHHHHSSGDDDDKMSYNLLGFLQRSSNFQCQKLLWQLNGRLEYCLKDRMNFDIPEEIKQLQQFQKEDAALTIYEMLQNIFAIFRQDSSSTGWNETIVENLLANVYHQINHLKTVLEEKLEKEDFTRGKLMSSLHLKRYYGRILHYLKAKEYSHCAWTIVRVEILRNFYFINRLTGYLRN
notes: also called his IFN-beta; His6-tagged

binding result [3]: no binding
concentration without binding, fold over the w.t. his-IFN-beta EC50 [4]: > 500 fold
B2: his tagged-interferon-beta alanine substitution mutant E (ligand)
chain: B1 chain with V165A, R169A, Y172A, N175A
notes: Tested as conditioned medium of EBNA 293 cells

binding result [3]: no binding
concentration without binding, fold over the w.t. his-IFN-beta EC50 [4]: 500 fold
B3: his tagged-interferon-beta alanine substitution mutant A2 (ligand)
chain: B1 chain with F32A, Q33A, Q35A, K36A, W39A, Q40A
notes: as for B2

binding result [3]: no binding
concentration without binding, fold over the w.t. his-IFN-beta EC50 [4]: > 500 fold
B4: his tagged-interferon-beta alanine substitution mutant AB2 (ligand)
chain: B1 chain with M53A, N54A, D56A, E59A
notes: as for B2

binding result [3]: no binding
concentration without binding, fold over the w.t. his-IFN-beta EC50 [4]: > 500 fold
B5: his tagged-interferon-beta alanine substitution mutant AB1 (ligand)
chain: B1 chain with L45A, E46A, Y47A, L49A, K50A
notes: as for B2
